Target: T1, melanopsin (mOPN4-Flag), on Per2:ELuc:TK:Mel cells (mouse) (UniProt Q9QXZ9)
T1 sequence: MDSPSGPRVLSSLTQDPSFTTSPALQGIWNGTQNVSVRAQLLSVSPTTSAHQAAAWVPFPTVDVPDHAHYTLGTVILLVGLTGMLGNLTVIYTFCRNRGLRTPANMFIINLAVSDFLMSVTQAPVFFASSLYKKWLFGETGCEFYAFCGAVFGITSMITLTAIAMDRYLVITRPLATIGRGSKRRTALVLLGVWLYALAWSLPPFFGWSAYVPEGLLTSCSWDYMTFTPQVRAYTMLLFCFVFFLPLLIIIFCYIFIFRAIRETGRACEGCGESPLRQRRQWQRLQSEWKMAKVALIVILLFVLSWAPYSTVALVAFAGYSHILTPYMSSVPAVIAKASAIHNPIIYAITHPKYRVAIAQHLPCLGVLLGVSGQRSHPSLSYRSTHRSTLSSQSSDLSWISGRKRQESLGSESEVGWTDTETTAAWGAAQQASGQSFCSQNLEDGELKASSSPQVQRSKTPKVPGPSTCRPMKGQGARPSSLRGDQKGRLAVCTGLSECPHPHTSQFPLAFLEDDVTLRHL
Test: cell binding fluorescence (microplate), EC50
Conditions: 6-FAM-Melapt (1.405-90 ug/mL) added to adherent cells in DMEM, 15 min, washed, fluorescence 495/517 nm, n=3, cells cultured at 37 C, 5% CO2, binding pH and …

| Sequence | K half [µg/mL] | K half (Results text gives 22.5 ug/mL, not saturated at 90 ug/mL) [µg/mL] |
| --- | --- | --- |
| AAAGGGGAATTCGGATCCCCGCACACGTGGAGCCAAGTCGAGTTTAATTCCCTATCGCCTGCAGAAGCTTCCGTTT [6-FAM-Melapt04] | 5.62 | – |
| AAAGGGGAATTCGGATCCTTCACCGATACGGCTCCCTTGGCCAGACAGGAAAAAATAACTGCAGAAGCTTCCGTTT [6-FAM-Melapt08] | – | 45 |
| AAAGGGGAATTCGGATCCCGACCCGAAGGAGCGGTGGATAACCCCACCAAGATACGTCCTGCAGAAGCTTCCGTTT [6-FAM-Melapt01] | 11.2 | – |
